In article PMC10828404:

Molecular target: ACE2 receptor on ACE2-expressing HEK 293T cells (UniProt Q9BYF1)
Assay: flow cytometry on cells

UniProt Q9BYF1, sequence (Q9BYF1 18-805): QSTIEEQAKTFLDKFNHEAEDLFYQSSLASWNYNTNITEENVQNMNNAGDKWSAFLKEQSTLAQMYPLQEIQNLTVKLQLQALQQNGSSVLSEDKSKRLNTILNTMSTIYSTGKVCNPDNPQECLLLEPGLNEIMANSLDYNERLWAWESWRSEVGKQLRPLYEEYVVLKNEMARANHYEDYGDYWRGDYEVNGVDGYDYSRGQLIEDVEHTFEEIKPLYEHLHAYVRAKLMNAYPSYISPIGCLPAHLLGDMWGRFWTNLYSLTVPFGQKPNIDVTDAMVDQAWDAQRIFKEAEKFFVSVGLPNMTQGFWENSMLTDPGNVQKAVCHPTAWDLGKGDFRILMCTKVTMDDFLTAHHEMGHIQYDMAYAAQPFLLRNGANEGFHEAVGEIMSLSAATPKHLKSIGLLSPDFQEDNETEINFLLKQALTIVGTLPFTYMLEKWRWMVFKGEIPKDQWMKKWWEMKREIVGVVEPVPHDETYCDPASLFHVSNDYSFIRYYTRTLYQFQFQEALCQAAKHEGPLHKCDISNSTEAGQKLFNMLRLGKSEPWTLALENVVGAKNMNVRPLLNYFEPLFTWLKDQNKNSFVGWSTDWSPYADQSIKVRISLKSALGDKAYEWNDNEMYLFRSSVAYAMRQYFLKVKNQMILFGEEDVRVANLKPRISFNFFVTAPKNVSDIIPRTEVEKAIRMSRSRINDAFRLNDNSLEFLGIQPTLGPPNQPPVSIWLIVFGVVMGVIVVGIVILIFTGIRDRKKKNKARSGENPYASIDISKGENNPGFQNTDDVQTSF

Substance “DNA-VLP-Cy5-30x (icosahedral DNA origami displaying 30 copies of the SARS-CoV-2 RBD and 5 copies of Cy5)” has a fold increase in median fluorescence intensity (corrected for Cy5 brightness per RBD) against monomeric RBD-Cy5 of 10 fold.
